Measured values taken from patent US9416187B2, “CD-20 specific antibodies and methods of employing same” (Duke University, dated 2016).

Tests used:
human CD20 [1] = molecular target: T1, human CD20 (human, UniProt P11836); assay: flow cytometry, human blood B cells, saturating antibody
T1 sequence: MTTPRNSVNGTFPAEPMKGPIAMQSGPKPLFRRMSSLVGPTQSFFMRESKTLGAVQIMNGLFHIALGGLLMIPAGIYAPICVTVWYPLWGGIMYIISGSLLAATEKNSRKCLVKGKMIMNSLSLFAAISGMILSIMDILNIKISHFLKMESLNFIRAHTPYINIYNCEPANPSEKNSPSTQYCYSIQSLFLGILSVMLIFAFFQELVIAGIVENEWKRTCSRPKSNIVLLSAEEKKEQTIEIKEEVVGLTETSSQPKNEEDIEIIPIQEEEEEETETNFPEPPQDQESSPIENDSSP

human CD20 [2] = molecular target: T1, human CD20; assay: flow cytometry, Raji cells, saturating antibody
human CD20 [3] = molecular target: T1, human CD20; assay: flow cytometry, BJAB cells, saturating antibody
human CD20 [4] = molecular target: T1, human CD20; assay: flow cytometry, DHL-4 cells, saturating antibody
mouse CD20 [5] = molecular target: T2, mouse CD20 (mouse, UniProt P19437); assay: flow cytometry, spleen CD19+ B cells, control staining
T2 sequence: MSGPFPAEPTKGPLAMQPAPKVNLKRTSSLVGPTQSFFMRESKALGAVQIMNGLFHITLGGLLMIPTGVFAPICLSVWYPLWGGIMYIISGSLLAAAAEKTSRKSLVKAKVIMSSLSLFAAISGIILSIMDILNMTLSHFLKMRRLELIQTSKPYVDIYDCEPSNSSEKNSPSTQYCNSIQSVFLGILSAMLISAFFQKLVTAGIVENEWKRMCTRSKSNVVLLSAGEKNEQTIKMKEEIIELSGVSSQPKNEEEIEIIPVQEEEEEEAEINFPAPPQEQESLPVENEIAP

mouse CD20 [6] = molecular target: T2, mouse CD20; assay: flow cytometry, spleen CD19+ B cells, 0.5 µg/mL antibody

mean linear fluorescence intensity (human CD20 [1])	mean linear fluorescence intensity (human CD20 [2])	mean linear fluorescence intensity (human CD20 [3])	mean linear fluorescence intensity (human CD20 [4])	mean linear fluorescence intensity (mouse CD20 [5])	B cell reactivity (mean linear fluorescence intensity) (mouse CD20 [6])	Molecule
112	438	377	162			B9E9 anti-CD20 monoclonal antibody
				< 6		isotype-matched control monoclonal antibodies
104	455	386	169			1F5 anti-CD20 monoclonal antibody
277	944	700	486			B1 anti-CD20 monoclonal antibody
469	2220	1200	765			HB20-3 monoclonal antibody (antibody, V domains shown) VH: EVQLQESGAELVKPGASVKMSCKASGFTFTNYNMHWLKQTPGQGLEWIGAIYPENGDTSYNQKFKGKATLTADKASSTAYMHLSSLTSEDSAVYFCARFYYYGSYYGAMDYWGQGTSVTVSS VL: MWGSVFNFSIVGARCDIQMTQSPASLSASVGETVTITCRASGNIHNYLAWYQQKQGKSPQLLVYNAKTLADGVPSRFSGSGSGTQFSLKINSLQPEDFGSYYCQHFWSTPWTFGGGTKLEIKR
397	1580	1100	578			HB20-4 monoclonal antibody (antibody, V domains shown) VH: EVQLQESGAELVKPGASVKMSCKASGFTFTNYNMHWVKQTPGQGLEWIGAIYPENGDTSYNQRFKGKATLTADKSSSTAYMHLSSLTSEDTAVYFCARFYYYGSYYGALDYWGQGTSVTVSS VL: MWGSVFNFSIVGARCDIQMTQSPASLSASVGETVTITCRASGSIHNYLAWYQQKLGKSPQLLVYNAKTLADGVPSRFSGSGSGTQFSLKINSLQPEDFGSYYCQHFWSIPWTFGGGTKLEIKR
					209	MB20-2 monoclonal antibody (antibody, V domains shown) VH: EVQLQESGPELVKPGASVKISCKASGYMFTDYYIKWVKQSHGKSLEWIGDINPNNGDTIYNQKFKGKATLTVDKSSNTAYMDLRSLTSEDSAVYYCARERFAYWGQGTLVTVSA VL: EIVLTQSPTTMAASPGEKITITCSVSSSIRSNYLHWYQQKPGFSPKLLIYRTSNLASGVPARFSGSGSGTSYSLTVATMEAEDVATYYCQQGSSIPLTFGAGTKLELKR
					525	MB20-7 monoclonal antibody (antibody, V domains shown) VH: EVQLQESGPDLVKPGASVKISCKASGYMFTDYYMKWVKQSHGKSLEWIGDINPNNGDTTYNQKFEGKATLTVDKSSSTAYMELRSLTSEDSAVYYCARERFAYWGQGTLVTVSA VL: ELVLTQSPTTKAASPGEKITITCSVSSSIRSNYLHWYQQRPGFSPKLLIYRTSNLASGVPARFSGSGSGTSYSLTIGTMEAEDVATYYCQQGSSLPLTFGAGTKLELKR
					317	MB20-10 monoclonal antibody (antibody, V domains shown) VH: EVQLQESGPDLVKPGASVKISCKASGYTFTDYYMKWVKQSHGKSLDWIGDINPNNGDIIYNQKFEGKATLTVDKSSSTAYMELRSLTSEDSAVYYCARERFAYWGQGTLVTVSA VL: EIVLTQSPTTMAASPGEKITITCSVSSNIRSNYLHWYQQKPGFSPKLLIYRTSNLASGVPARFSGSGSGTSYSLTIGTMKAEDVATYYCQQGSSIPLTFGAGTKLELKR
					240	MB20-8 monoclonal antibody (antibody, V domains shown) VH: EVQLQESGPDLVKPGASVKISCKASGYTFTDYYMKWVKQSHGKSLDWIGDINPNNGDIIYNQKFEGKATLTVDKSSSTAYMELRSLTSEDSAVYYCARERFAYWGQGTLVTVSA VL: EIVLTQSPTTMAASPGEKITITCSVSSNIRSNYLHWYQQKPGFSPKLLIYRTSNLASGVPARFSGSGSGTSYSLTIGTMKAEDVATYYCQQGSSIPLTFGAGTKLELKR
					166	MB20-14 monoclonal antibody (antibody, V domains shown) VH: EVQLQESGPELVKPGASVKISCKASGYMFTDYYIKWVKQSHGKSLEWIGDINPNNGDTIYNQKFKGKATLTVDKSSNTAYMDLRILTSEDSAVYYCARERFAYWGQGTLVTVSA VL: EIVLTQSPTTMAASPGEKITITCSVSSSIRSNYLHWYQQKPGFSPKLLIYRTSNLASGVPARFSGSGSGTSYSLTVATMEAEDVATYYCQQGSSIPLTFGAGTKLELKR
					729	MB20-18 monoclonal antibody (antibody, V domains shown) VH: EVQLQESGLDLVKPGASVKISCKASGYTFTDYYMKWVKQSHGKSLDWIGDINPNNGDIIYNQKFEGKATLTVDKSSSTAYMELRSLTSEDSAVYYCARERFAYWGQGTLVTVSA VL: SIVMTQTPKFLLVSTGDRVTITCKASQTVTNDLAWYQQKPGQSPKLLIYYASNRYTGVPDRFTGSGYGTDFTFTINTVQAEDLAVYFCQQDYSSPLTFGAGTKLELKR
227	1350	849	514			HB20-25 monoclonal antibody (antibody, V domains shown) VH: EVQLQESGAELVKPGASVKMSCKASGFRFTNYNLHWVKQTPGQGLEWIGAIYPGNGETSYNQKFKGKATLTADKSSSTAYMQLRSLTSGDSAVYYCARFYYYGSSYGAMDYWGQGTSVTVSS VL: MWGSVFNFSIVDARCDIQMTQSPASLSVSVGETVTITCRASENIYSNLAWYQQKQGKSPQLLVYAATNLADGVPSRFSGSGSGTQYSLKINSLQSEDFGSYYCQHFWGIPWTFGGGTKLEIKR
					69	MB20-1 monoclonal antibody (antibody, V domains shown) VH: EVQLQESGGGLVQPGGSLKLSCAASGFTFSDYGMAWVRQAPRKGPEWVAFISNLAYSIYYADTVTGRFTISRENAKNTLYLEMSSLRSEDTAMYFCTRTGYYALDYWGQGTSVTVSS VL: NIMMTQSPSSLAVSAGEKVTMRCKSSQSVLYSSKRKNYLAWYQQKPGKSPTLLIYWASTRESGVPDRFTGSGSGTDFTLTITSVQAEDLAVYYCHQYLSSFTFGGGTKLEIKR
					603	MB20-13 monoclonal antibody (antibody, V domains shown) VH: EVQLQESGGGLVQPGGSLKLSCAASGFTFSDYGMAWVRQAPRKGPEWVAFISNLAYSIYYADTVTGRFTISRENAKNTLYLEMSSLRSEDTAMYFCTRTGYYALDYWGQGTSVTVSS VL: EIVLAQSPTTTAASPGEKITITCSASSSITSNYLHWYQQKPGFSPKLLIYRTSNLASGVPARFSGSGSGTSYSLTIGTMEAEDVATYYCQQGSSKTLTFGAGTKLELKR
